± gives the uncertainty stated by the source.
Experiment: protein stability index of a GFP-peptide fusion (yeast GPS) (PSI 1-4); higher = more stable; sorted into four equal gates, so the index is relative within each strain
Procedure, shortened: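 Plasmids in a pooled yeast library fused tiled 17-residue yeast protein peptides downstream of GFP and also expressed Cherry. Mid-log cultures grown without leucine were sorted into four equal gates by GFP/Cherry fluorescence ratio. Each gate's plasmids were PCR-amplified and Illumina-sequenced, and reads were matched to strains by barcodes. The protein stability index is derived by multiplying each gate's read frequency by its gate number and summing the results.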

Sequence	protein stability index (doa10∆)	protein stability index (pdr5∆)	protein stability index (san1∆)	protein stability index (ubr1∆)
KSICFENCLNNDPEILK [SWI1]	2.2 ± 0.087	2.69 ± 0.056	2.83 ± 0.068	2.7 ± 0.074
PGPYPNEQAARAANQGA [CYT1]	2.35 ± 0.053	2.68 ± 0.045	2.33 ± 0.059	2.3 ± 0.05
FVIHIQEKNFQTGIFVY [RPB5]	1.98 ± 0.062	1.58 ± 0.05	1.54 ± 0.16	1.88 ± 0.081
SGDKEATAPLIQRKNKK [RPN8]	3.39 ± 0.2	3.35 ± 0.14	3.25 ± 0.095	–
GKRQVLIRPSSKVIIKF [RPS22A]	3.04 ± 0.068	2.4 ± 0.046	2.78 ± 0.057	2.95 ± 0.042
NVPGVETANVASLNLLQ [RPL4A]	2.71 ± 0.053	3.05 ± 0.055	2.86 ± 0.044	2.87 ± 0.041
VFLEFSLNFIPITASTS [YML103C/NUP188]	1.27 ± 0.068	1.34 ± 0.049	1.62 ± 0.097	1.48 ± 0.038
SGNLPLNELSAKDKEIY [RPN13]	3.21 ± 0.074	3.32 ± 0.083	3.27 ± 0.044	3.19 ± 0.067
QKKARTILQHLSEAWRC [PRP8]	1.96 ± 0.11	1.8 ± 0.097	2.28 ± 0.12	2.55 ± 0.16
KGPIIISKNPSNGIFYG [SIR2]	2.74 ± 0.067	2.5 ± 0.061	1.92 ± 0.083	2.3 ± 0.053
NSLLTIVWRFISENTFP [RPC34]	1.82 ± 0.059	2.05 ± 0.042	2.08 ± 0.076	2.31 ± 0.045
YNTNFNLLLRELNVEKL [SRP72]	2.9 ± 0.091	3.18 ± 0.11	2.89 ± 0.089	3.26 ± 0.056
MSDPSSINGGIVVAMTG [PUP3]	–	2.39 ± 0.21	–	–
QQQQQHQQQQQQQQQQQ [SNF5]	2.73 ± 0.04	2.89 ± 0.05	2.94 ± 0.043	2.97 ± 0.044
EDILQGIFNLLNTLFNP [NUT1]	2.23 ± 0.052	2.35 ± 0.055	2.41 ± 0.078	2.3 ± 0.075
LFSKNRNEVLESMDFLV [YCS4]	2.08 ± 0.05	2.19 ± 0.066	2.43 ± 0.076	2.62 ± 0.052
KGETNSEISIIDATLKE [RRP45]	2.92 ± 0.074	3.08 ± 0.068	3.31 ± 0.072	3.19 ± 0.059
LERYVKRCMDDLNPLKT [RPO31]	3.08 ± 0.078	3.15 ± 0.058	3.27 ± 0.043	3.16 ± 0.041
RMLEEAIDHLKAELEKQ [YIL149C/MLP2]	3.25 ± 0.056	3.21 ± 0.063	3.32 ± 0.073	3.12 ± 0.053
EKASGFEDSMQFKKLTH [PRP8]	2.81 ± 0.085	3.12 ± 0.083	2.99 ± 0.087	3.01 ± 0.084
EVYDFTHAVGNNCEDFV [FAS1]	3.15 ± 0.12	3 ± 0.18	2.99 ± 0.071	3.05 ± 0.086
AFFHLFASLRVLPDADV [YJL039C/NUP192]	1.17 ± 0.08	1.24 ± 0.078	1.36 ± 0.14	1.97 ± 0.066
IQRTTESLILKWDNQSA [RGR1]	3.14 ± 0.051	3.05 ± 0.056	2.36 ± 0.059	2.94 ± 0.05
VRGGNIEIMGILMGFTL [RRI1]	2.32 ± 0.074	2.56 ± 0.092	2.31 ± 0.16	2.9 ± 0.096
TMIKKTTLVTRREELQQ [SMC3]	2.88 ± 0.13	2.94 ± 0.11	3.1 ± 0.16	2.55 ± 0.18
NVSLIKIEGVATPQEAQ [RPL33B]	2.76 ± 0.07	2.78 ± 0.096	2.92 ± 0.074	2.61 ± 0.055

Sequence	protein stability index (doa10∆)	protein stability index (pdr5∆)	protein stability index (san1∆)	protein stability index (ubr1∆)
SGNEMPPQDAEGWFYKR [RPS19A]	3.21 ± 0.13	3.29 ± 0.24	3.25 ± 0.13	3.17 ± 0.12
EFDRRILKKSLMTSHTK [RTT102]	2.94 ± 0.17	2.98 ± 0.092	2.4 ± 0.15	3.29 ± 0.093
SKYYPGVIIKVEESGEH [SNU114]	1.96 ± 0.061	2.08 ± 0.077	2.28 ± 0.08	2.42 ± 0.073
STTNSDVSLLLQRDLFI [RGR1]	2.76 ± 0.093	3.06 ± 0.1	2.81 ± 0.067	3.02 ± 0.077
NTLEEFEHGRTPAEMSR [FAS2]	2.8 ± 0.15	3.09 ± 0.16	3.19 ± 0.16	3.57 ± 0.15
VIFDASIKDTQNVGQGK [BRN1]	2.15 ± 0.14	2.45 ± 0.12	2.61 ± 0.13	3.01 ± 0.096
APSDFSENQRQIFCVFS [GRR1]	2.93 ± 0.071	2.58 ± 0.078	2.76 ± 0.064	2.65 ± 0.057
DSLISGVKQKITIQLTR [BRR2]	1.44 ± 0.12	1.74 ± 0.064	2.66 ± 0.083	1.63 ± 0.073
KKVSRRNARATRAAKIA [RPL13A]	2.25 ± 0.085	2.9 ± 0.1	2.39 ± 0.077	2.77 ± 0.045
SVGNLEVVKSLYDRPLK [NAS6]	3.29 ± 0.19	2.89 ± 0.2	3.12 ± 0.075	3.34 ± 0.1
FVEVERARVTKDLVEIK [RPN5]	3.37 ± 0.11	3.44 ± 0.093	3.33 ± 0.066	3.56 ± 0.058
QVDKVTKEKVNGASVPI [RPL26A]	3.1 ± 0.077	3.3 ± 0.11	2.86 ± 0.097	3.08 ± 0.046
EVPEGVTVSIKSRIVKV [RPL9A]	1.51 ± 0.064	1.86 ± 0.061	1.57 ± 0.097	2.26 ± 0.091
KEDADLKRMEILKSPHL [SIR4]	2.88 ± 0.053	2.95 ± 0.077	2.99 ± 0.053	3.08 ± 0.057
TAIDKNGNITYSEEPRE [FAS2]	2.87 ± 0.069	3.29 ± 0.066	3.12 ± 0.076	3.15 ± 0.073
KQLEKRDYQRINKNSKI [POP4]	2.06 ± 0.067	2.4 ± 0.068	2.02 ± 0.11	2.69 ± 0.11
KDAISFIKEIHKSIELI [YCS4]	2 ± 0.066	2.81 ± 0.065	3.17 ± 0.055	2.69 ± 0.037
SELQPQNRSLQEHNIQD [SNF2]	2.81 ± 0.041	3.24 ± 0.05	3.08 ± 0.04	3.09 ± 0.038
FLLEKAGERKIPHDLNF [TAF14]	2.43 ± 0.067	2.71 ± 0.062	2.61 ± 0.051	2.47 ± 0.046
ATEKKSSSPLAMSETLS [PRE8]	2.33 ± 0.076	2.77 ± 0.068	2.44 ± 0.1	2.39 ± 0.055
VEKTEKPKKPKGRAYKR [RPS30A]	3.16 ± 0.098	3.24 ± 0.091	3.07 ± 0.06	3.05 ± 0.07
DSDELGGESMEGPKKCI [SNM1]	3.38 ± 0.086	3.51 ± 0.086	3.39 ± 0.076	3.4 ± 0.071
ILDPSTEYCVGDYVAYQ [YMR129W/POM152]	2.83 ± 0.19	3.63 ± 0.18	2.47 ± 0.21	–
IRKGANDGEVYQKIFKP [PRE9]	2.06 ± 0.098	1.81 ± 0.068	–	1.83 ± 0.059
DDDDYGDEEDPNEEAAF [RPC31]	–	3.38 ± 0.28	–	–
KDLKEILSGFHNAGPVA [RPP1B]	2.93 ± 0.057	2.75 ± 0.062	2.62 ± 0.066	2.58 ± 0.066

From the supplement of paper PMC9732359
